Data published in article PMC9482650, “Quantitative fragmentomics allow affinity mapping of interactomes” (Nature Communications, 2022).

T1: SYNJ2BP, P57105
T1 sequence (P57105 8-110, limits assumed, looked up): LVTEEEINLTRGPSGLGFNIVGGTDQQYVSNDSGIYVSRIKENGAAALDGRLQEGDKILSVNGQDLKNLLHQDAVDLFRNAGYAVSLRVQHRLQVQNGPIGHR

T2: GRIP1_3, Q9Y3R0
T2 sequence (Q9Y3R0 247-346, limits assumed, looked up): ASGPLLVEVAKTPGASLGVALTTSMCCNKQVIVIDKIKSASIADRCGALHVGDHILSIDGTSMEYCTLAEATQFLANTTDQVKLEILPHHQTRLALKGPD

T3: MPDZ_12, O75970
T3 sequence (O75970 1857-1958, limits assumed, looked up): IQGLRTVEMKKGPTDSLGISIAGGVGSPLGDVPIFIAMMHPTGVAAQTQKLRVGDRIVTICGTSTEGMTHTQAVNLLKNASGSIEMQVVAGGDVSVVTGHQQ

T4: SHANK1, Q9Y566
T4 sequence (Q9Y566 658-767, limits assumed, looked up): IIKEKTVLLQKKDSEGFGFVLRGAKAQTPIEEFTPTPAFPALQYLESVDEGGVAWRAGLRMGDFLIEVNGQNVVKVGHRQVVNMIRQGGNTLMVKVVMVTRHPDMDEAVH

T5: DFNB31_1, Q9P202
T5 sequence (Q9P202 135-233, limits assumed, looked up): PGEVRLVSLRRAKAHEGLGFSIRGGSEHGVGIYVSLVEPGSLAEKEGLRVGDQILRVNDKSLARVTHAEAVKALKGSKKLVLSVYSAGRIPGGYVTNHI

T6: PTPN13_1, Q12923
T6 sequence (Q12923 1088-1188, limits assumed, looked up): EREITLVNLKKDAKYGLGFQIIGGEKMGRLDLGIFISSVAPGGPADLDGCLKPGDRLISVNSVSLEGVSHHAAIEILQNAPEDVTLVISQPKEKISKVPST

T7: DFNB31_3, Q9P202
T7 sequence (Q9P202 811-907, limits assumed, looked up): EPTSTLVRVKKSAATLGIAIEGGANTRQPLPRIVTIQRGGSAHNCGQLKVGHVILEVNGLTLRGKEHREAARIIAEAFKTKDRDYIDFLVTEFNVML

T8: APBA1_2, Q02410
T8 sequence (Q02410 742-832, limits assumed, looked up): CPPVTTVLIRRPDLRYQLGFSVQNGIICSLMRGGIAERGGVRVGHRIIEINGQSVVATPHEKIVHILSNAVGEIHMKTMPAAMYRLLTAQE

T9: PDZD7_3, Q9H5P4
T9 sequence (Q9H5P4 857-944, limits assumed, looked up): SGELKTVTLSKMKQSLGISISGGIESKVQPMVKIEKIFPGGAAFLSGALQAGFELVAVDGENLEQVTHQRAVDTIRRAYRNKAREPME

T10: GRIP1_7, Q9Y3R0
T10 sequence (Q9Y3R0 999-1096, limits assumed, looked up): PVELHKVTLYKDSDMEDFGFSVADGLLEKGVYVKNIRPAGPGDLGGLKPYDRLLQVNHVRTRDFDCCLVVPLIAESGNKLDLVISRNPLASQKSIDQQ

T11: APBA3_1, O96018
T11 sequence (O96018 389-490, limits assumed, looked up): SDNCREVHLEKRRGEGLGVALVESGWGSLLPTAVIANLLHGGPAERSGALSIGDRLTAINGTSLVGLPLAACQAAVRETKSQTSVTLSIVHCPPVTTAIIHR

T12: MPP6, Q9NZW5
T12 sequence (Q9NZW5 125-219, limits assumed, looked up): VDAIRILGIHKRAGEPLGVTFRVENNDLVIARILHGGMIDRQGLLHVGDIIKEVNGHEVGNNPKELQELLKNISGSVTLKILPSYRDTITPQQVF


These binders were tested against GRID2IP_2, A4D2P6 (assay: holdup assay). Conditions: plain residues with an end cap or a label only (N-terminal biotin on a linker: ado-ado).
Sequence of GRID2IP_2, A4D2P6 (A4D2P6 272-370): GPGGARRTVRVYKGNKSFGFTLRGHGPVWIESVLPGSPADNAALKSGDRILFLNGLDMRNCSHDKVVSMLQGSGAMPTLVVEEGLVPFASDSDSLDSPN
Parameters: key: below the threshold = too weak to quantify, mostly under pKd 3.1 to 4
With DLLGGGSDSI [TNRC6B, Q9UPQ9] the pKd was “below the threshold”.

These binders were tested against T1, SYNJ2BP, P57105 (assay: holdup assay). Conditions: plain residues with an end cap or a label only (N-terminal biotin on a linker: ado-ado).
Parameters: key: below the threshold = too weak to quantify, mostly under pKd 3.1 to 4
For DLLGGGSDSI [TNRC6B, Q9UPQ9], the pKd was “below the threshold”.

These binders were tested against GRID2IP_1, A4D2P6 (assay: holdup assay). Conditions: plain residues with an end cap or a label only (N-terminal biotin on a linker: ado-ado).
Sequence of GRID2IP_1, A4D2P6 (A4D2P6 1-87): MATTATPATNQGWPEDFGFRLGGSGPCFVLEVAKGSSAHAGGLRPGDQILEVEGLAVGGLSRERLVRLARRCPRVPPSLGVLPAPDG
Parameters: key: below the threshold = too weak to quantify, mostly under pKd 3.1 to 4
For DLLGGGSDSI [TNRC6B, Q9UPQ9], the pKd was “below the threshold”.

These binders were tested against T2, GRIP1_3, Q9Y3R0 (assay: holdup assay). Conditions: plain residues with an end cap or a label only (N-terminal biotin on a linker: ado-ado).
Parameters: key: below the threshold = too weak to quantify, mostly under pKd 3.1 to 4
With DLLGGGSDSI [TNRC6B, Q9UPQ9] the pKd was “below the threshold”.

The binders below were run against TJP1_3, Q07157 (assay: holdup assay). Conditions: plain residues with an end cap or a label only (N-terminal biotin on a linker: ado-ado).
Sequence of TJP1_3, Q07157 (Q07157 416-512): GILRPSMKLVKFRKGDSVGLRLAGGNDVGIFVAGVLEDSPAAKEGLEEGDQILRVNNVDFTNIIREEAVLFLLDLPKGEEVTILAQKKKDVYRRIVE
Parameters: key: below the threshold = too weak to quantify, mostly under pKd 3.1 to 4
With DLLGGGSDSI [TNRC6B, Q9UPQ9] the pKd was “below the threshold”.

What follows are binders tested against AHNAK1, Q09666 (assay: holdup assay). Conditions: plain residues with an end cap or a label only (N-terminal biotin on a linker: ado-ado).
Sequence of AHNAK1, Q09666 (Q09666 4-100): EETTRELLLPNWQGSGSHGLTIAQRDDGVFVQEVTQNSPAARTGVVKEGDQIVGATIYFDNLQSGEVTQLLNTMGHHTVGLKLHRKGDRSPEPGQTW
Parameters: key: below the threshold = too weak to quantify, mostly under pKd 3.1 to 4
DLLGGGSDSI [TNRC6B, Q9UPQ9] was tested, and the pKd was “below the threshold”.

The binders below were run against MAGI1_2, Q96QZ7 (assay: holdup assay). Conditions: plain residues with an end cap or a label only (N-terminal biotin on a linker: ado-ado).
Sequence of MAGI1_2, Q96QZ7 (Q96QZ7 456-580): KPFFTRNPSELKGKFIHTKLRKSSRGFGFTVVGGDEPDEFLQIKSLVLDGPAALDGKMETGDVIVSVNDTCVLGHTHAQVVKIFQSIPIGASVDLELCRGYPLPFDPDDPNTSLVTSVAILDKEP
Parameters: key: below the threshold = too weak to quantify, mostly under pKd 3.1 to 4
DLLGGGSDSI [TNRC6B, Q9UPQ9] was tested, and the pKd was “below the threshold”.

Each binder was assayed against T3, MPDZ_12, O75970 (assay: holdup assay). Conditions: plain residues with an end cap or a label only (N-terminal biotin on a linker: ado-ado).
Parameters: key: below the threshold = too weak to quantify, mostly under pKd 3.1 to 4
DLLGGGSDSI [TNRC6B, Q9UPQ9] showed a pKd of 3.53.

Each binder was assayed against T4, SHANK1, Q9Y566 (assay: holdup assay). Conditions: plain residues with an end cap or a label only (N-terminal biotin on a linker: ado-ado).
Parameters: key: below the threshold = too weak to quantify, mostly under pKd 3.1 to 4
With DLLGGGSDSI [TNRC6B, Q9UPQ9] the pKd was “below the threshold”.

Each binder was assayed against T5, DFNB31_1, Q9P202 (assay: holdup assay). Conditions: plain residues with an end cap or a label only (N-terminal biotin on a linker: ado-ado).
Parameters: key: below the threshold = too weak to quantify, mostly under pKd 3.1 to 4
In the case of DLLGGGSDSI [TNRC6B, Q9UPQ9], the pKd is reported as “below the threshold”.

These binders were tested against PDZRN4_1, Q6ZMN7 (assay: holdup assay). Conditions: plain residues with an end cap or a label only (N-terminal biotin on a linker: ado-ado).
Sequence of PDZRN4_1, Q6ZMN7 (Q6ZMN7 213-318): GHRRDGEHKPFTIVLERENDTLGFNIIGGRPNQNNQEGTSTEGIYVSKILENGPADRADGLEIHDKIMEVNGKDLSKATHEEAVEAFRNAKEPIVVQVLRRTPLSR
Parameters: key: below the threshold = too weak to quantify, mostly under pKd 3.1 to 4
DLLGGGSDSI [TNRC6B, Q9UPQ9] was tested, and the pKd was “below the threshold”.

The binders below were run against T6, PTPN13_1, Q12923 (assay: holdup assay). Conditions: plain residues with an end cap or a label only (N-terminal biotin on a linker: ado-ado).
Parameters: key: below the threshold = too weak to quantify, mostly under pKd 3.1 to 4
For DLLGGGSDSI [TNRC6B, Q9UPQ9], the pKd was “below the threshold”.

Each binder was assayed against DLG1_1, Q12959 (assay: holdup assay). Conditions: plain residues with an end cap or a label only (N-terminal biotin on a linker: ado-ado).
Parameters: key: below the threshold = too weak to quantify, mostly under pKd 3.1 to 4
For DLLGGGSDSI [TNRC6B, Q9UPQ9], the pKd was “below the threshold”.

These binders were tested against T7, DFNB31_3, Q9P202 (assay: holdup assay). Conditions: plain residues with an end cap or a label only (N-terminal biotin on a linker: ado-ado).
Parameters: key: below the threshold = too weak to quantify, mostly under pKd 3.1 to 4
DLLGGGSDSI [TNRC6B, Q9UPQ9] showed a pKd of 4.01.

What follows are binders tested against NHERF2_2, Q15599 (assay: holdup assay). Conditions: plain residues with an end cap or a label only (N-terminal biotin on a linker: ado-ado).
Sequence of NHERF2_2, Q15599 (Q15599 142-238): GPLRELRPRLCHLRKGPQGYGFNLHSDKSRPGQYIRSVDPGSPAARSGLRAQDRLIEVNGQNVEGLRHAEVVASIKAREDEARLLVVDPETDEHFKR
Parameters: key: below the threshold = too weak to quantify, mostly under pKd 3.1 to 4
With DLLGGGSDSI [TNRC6B, Q9UPQ9] the pKd was “below the threshold”.

What follows are binders tested against FRMPD2_3, Q68DX3 (assay: holdup assay). Conditions: plain residues with an end cap or a label only (N-terminal biotin on a linker: ado-ado).
Sequence of FRMPD2_3, Q68DX3 (Q68DX3 1073-1166): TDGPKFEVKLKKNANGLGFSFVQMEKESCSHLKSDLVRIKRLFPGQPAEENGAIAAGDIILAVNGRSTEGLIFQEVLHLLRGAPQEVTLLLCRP
Parameters: key: below the threshold = too weak to quantify, mostly under pKd 3.1 to 4
With DLLGGGSDSI [TNRC6B, Q9UPQ9] the pKd was 3.51.

The binders below were run against Inadl_8, Q8NI35 (assay: holdup assay). Conditions: plain residues with an end cap or a label only (N-terminal biotin on a linker: ado-ado).
Sequence of Inadl_8, Q8NI35 (Q8NI35 1425-1530): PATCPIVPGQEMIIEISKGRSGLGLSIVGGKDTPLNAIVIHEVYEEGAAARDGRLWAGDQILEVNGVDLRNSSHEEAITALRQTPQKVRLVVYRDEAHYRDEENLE
Parameters: key: below the threshold = too weak to quantify, mostly under pKd 3.1 to 4
For DLLGGGSDSI [TNRC6B, Q9UPQ9], the pKd was “below the threshold”.

Each binder was assayed against DLG4_3, P78352 (assay: holdup assay). Conditions: plain residues with an end cap or a label only (N-terminal biotin on a linker: ado-ado).
Sequence of DLG4_3, P78352 (P78352 306-403): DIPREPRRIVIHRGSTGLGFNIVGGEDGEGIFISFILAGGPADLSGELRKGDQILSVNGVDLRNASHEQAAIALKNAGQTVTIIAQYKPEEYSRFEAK
Parameters: key: below the threshold = too weak to quantify, mostly under pKd 3.1 to 4
With DLLGGGSDSI [TNRC6B, Q9UPQ9] the pKd was “below the threshold”.

What follows are binders tested against T8, APBA1_2, Q02410 (assay: holdup assay). Conditions: plain residues with an end cap or a label only (N-terminal biotin on a linker: ado-ado).
Parameters: key: below the threshold = too weak to quantify, mostly under pKd 3.1 to 4
In the case of DLLGGGSDSI [TNRC6B, Q9UPQ9], the pKd is reported as “below the threshold”.

These binders were tested against MAGI1_1, Q96QZ7 (assay: holdup assay). Conditions: plain residues with an end cap or a label only (N-terminal biotin on a linker: ado-ado).
Sequence of MAGI1_1, Q96QZ7 (Q96QZ7 1-106): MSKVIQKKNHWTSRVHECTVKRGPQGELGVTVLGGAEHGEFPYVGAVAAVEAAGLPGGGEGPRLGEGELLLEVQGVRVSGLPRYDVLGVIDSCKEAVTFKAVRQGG
Parameters: key: below the threshold = too weak to quantify, mostly under pKd 3.1 to 4
In the case of DLLGGGSDSI [TNRC6B, Q9UPQ9], the pKd is reported as “below the threshold”.

Each binder was assayed against DLG4_2, P78352 (assay: holdup assay). Conditions: plain residues with an end cap or a label only (N-terminal biotin on a linker: ado-ado).
Sequence of DLG4_2, P78352 (P78352 155-259): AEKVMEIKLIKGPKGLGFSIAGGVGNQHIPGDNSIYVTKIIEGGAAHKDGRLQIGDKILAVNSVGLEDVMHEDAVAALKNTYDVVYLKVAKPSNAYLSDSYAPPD
Parameters: key: below the threshold = too weak to quantify, mostly under pKd 3.1 to 4
With DLLGGGSDSI [TNRC6B, Q9UPQ9] the pKd was 3.5.

The binders below were run against DLG5_1, Q8TDM6 (assay: holdup assay). Conditions: plain residues with an end cap or a label only (N-terminal biotin on a linker: ado-ado).
Sequence of DLG5_1, Q8TDM6 (Q8TDM6 617-713): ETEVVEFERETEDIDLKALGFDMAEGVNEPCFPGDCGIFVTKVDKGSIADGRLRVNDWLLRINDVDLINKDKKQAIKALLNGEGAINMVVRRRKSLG
Parameters: key: below the threshold = too weak to quantify, mostly under pKd 3.1 to 4
DLLGGGSDSI [TNRC6B, Q9UPQ9] was tested, and the pKd was “below the threshold”.

The binders below were run against T9, PDZD7_3, Q9H5P4 (assay: holdup assay). Conditions: plain residues with an end cap or a label only (N-terminal biotin on a linker: ado-ado).
Parameters: key: below the threshold = too weak to quantify, mostly under pKd 3.1 to 4
For DLLGGGSDSI [TNRC6B, Q9UPQ9], the pKd was “below the threshold”.

These binders were tested against T10, GRIP1_7, Q9Y3R0 (assay: holdup assay). Conditions: plain residues with an end cap or a label only (N-terminal biotin on a linker: ado-ado).
Parameters: key: below the threshold = too weak to quantify, mostly under pKd 3.1 to 4
For DLLGGGSDSI [TNRC6B, Q9UPQ9], the pKd was “below the threshold”.

Each binder was assayed against T11, APBA3_1, O96018 (assay: holdup assay). Conditions: plain residues with an end cap or a label only (N-terminal biotin on a linker: ado-ado).
Parameters: key: below the threshold = too weak to quantify, mostly under pKd 3.1 to 4
DLLGGGSDSI [TNRC6B, Q9UPQ9] was tested, and the pKd was “below the threshold”.

The binders below were run against T12, MPP6, Q9NZW5 (assay: holdup assay). Conditions: plain residues with an end cap or a label only (N-terminal biotin on a linker: ado-ado).
Parameters: key: below the threshold = too weak to quantify, mostly under pKd 3.1 to 4
For DLLGGGSDSI [TNRC6B, Q9UPQ9], the pKd was “below the threshold”.
